Tests used:
Experiment in all cases: SPR, antibody captured, C2 as analyte;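 note: biacore SPR at 37 °C, anti-C2 mAbs captured via goat anti-human IgG on CM5 chips, double-referenced sensorgrams fit to a 1:1 kinetic or steady-state model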
human C2 F437A = molecular target: T1, human C2 F437A (human, UniProt P06681 21-752)
T1 sequence: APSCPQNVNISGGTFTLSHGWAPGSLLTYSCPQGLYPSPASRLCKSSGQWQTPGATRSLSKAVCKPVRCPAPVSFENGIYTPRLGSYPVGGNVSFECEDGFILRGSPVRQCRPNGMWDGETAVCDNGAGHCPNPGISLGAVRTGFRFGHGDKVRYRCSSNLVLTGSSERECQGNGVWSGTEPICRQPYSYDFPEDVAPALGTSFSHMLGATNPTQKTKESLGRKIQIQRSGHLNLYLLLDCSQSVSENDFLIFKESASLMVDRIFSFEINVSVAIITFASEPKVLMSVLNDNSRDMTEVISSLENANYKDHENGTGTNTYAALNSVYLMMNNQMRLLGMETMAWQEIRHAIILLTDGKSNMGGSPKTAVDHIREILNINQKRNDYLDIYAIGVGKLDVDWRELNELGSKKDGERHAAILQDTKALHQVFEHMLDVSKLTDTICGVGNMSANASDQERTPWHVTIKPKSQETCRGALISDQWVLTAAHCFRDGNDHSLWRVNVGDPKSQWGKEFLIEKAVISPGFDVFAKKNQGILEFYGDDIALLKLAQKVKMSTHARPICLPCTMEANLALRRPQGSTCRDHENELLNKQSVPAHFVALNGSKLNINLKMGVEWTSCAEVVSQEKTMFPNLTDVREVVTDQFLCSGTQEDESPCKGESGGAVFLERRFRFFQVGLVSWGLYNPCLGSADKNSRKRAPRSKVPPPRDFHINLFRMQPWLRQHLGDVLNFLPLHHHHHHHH

human C2 D419A = molecular target: T2, human C2 D419A (human, UniProt P06681 21-752)
T2 sequence: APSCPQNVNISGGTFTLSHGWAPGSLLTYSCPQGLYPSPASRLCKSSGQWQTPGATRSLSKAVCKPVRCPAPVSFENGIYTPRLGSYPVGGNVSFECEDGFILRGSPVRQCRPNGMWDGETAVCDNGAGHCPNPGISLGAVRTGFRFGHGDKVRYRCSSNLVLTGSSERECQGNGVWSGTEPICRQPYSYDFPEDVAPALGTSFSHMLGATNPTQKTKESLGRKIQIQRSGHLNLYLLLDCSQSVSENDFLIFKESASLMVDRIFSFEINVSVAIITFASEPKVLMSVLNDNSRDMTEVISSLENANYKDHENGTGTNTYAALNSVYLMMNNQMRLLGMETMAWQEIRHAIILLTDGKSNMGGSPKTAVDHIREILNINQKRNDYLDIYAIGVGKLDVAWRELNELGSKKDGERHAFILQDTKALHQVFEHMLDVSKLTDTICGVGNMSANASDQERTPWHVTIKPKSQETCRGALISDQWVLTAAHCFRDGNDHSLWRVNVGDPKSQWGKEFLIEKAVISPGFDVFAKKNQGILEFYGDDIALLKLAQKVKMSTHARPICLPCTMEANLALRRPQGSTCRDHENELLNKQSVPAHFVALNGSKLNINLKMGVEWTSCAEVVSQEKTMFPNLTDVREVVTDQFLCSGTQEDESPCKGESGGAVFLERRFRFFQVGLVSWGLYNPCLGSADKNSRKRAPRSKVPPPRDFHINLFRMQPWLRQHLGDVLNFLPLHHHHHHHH

human C2 N325A = molecular target: T3, human C2 N325A (human, UniProt P06681 21-752)
T3 sequence: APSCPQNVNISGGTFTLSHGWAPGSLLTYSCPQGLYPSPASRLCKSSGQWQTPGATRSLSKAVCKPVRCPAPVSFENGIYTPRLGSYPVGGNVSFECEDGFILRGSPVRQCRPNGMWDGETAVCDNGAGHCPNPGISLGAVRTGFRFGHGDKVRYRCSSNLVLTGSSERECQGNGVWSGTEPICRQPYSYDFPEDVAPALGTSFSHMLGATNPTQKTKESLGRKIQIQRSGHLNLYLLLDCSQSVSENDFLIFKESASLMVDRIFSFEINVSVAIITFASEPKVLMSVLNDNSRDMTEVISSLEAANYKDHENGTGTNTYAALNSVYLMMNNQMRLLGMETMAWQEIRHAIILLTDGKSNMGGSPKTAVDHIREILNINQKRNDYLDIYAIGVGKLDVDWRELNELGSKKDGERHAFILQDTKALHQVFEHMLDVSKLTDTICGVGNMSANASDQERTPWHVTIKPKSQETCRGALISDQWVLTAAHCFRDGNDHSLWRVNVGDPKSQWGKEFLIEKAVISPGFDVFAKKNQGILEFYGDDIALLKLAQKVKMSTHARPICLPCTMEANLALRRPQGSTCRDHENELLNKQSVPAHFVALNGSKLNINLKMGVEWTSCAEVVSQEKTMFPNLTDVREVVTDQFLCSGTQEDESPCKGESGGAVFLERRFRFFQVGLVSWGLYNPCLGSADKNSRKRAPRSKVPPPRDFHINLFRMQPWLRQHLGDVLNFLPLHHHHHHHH

human C2 T491A = molecular target: T4, human C2 T491A (human, UniProt P06681 21-752)
T4 sequence: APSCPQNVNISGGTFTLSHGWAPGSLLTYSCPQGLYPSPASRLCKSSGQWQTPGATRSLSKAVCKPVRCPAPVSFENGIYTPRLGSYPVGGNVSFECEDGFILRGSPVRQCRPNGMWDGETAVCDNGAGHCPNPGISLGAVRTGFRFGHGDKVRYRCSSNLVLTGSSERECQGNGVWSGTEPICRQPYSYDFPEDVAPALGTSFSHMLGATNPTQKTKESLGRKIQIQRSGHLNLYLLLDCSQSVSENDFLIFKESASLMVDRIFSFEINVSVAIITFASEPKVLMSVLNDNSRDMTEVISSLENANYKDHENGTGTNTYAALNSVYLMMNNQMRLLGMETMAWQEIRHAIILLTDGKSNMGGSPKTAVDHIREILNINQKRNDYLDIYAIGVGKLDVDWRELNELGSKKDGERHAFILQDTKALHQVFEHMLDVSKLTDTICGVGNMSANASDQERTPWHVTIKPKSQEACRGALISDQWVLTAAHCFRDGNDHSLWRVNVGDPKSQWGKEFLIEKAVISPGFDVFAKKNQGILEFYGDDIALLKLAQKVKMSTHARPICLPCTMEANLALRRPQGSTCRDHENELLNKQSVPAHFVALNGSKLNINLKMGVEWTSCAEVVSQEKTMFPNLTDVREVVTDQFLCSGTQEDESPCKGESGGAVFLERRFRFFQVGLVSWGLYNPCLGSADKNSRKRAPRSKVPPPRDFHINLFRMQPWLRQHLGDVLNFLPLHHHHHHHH

B1: RF16-226 (antibody, human IgG4 S228P, lambda)
heavy: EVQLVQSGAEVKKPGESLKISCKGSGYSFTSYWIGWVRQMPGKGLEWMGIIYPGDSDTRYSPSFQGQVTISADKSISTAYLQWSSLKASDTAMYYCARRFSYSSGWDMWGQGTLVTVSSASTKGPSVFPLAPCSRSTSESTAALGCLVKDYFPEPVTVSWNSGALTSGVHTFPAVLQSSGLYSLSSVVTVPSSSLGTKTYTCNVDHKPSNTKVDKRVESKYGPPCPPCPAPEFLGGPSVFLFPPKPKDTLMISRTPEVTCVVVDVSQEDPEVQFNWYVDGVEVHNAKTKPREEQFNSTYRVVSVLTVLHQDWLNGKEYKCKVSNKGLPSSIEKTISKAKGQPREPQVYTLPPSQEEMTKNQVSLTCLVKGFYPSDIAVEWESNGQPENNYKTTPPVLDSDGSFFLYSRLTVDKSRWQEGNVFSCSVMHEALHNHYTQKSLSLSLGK
light: SYELTQPPSVSVSPGQTARITCSGDALTSKYVAWYQQKSGLAPLLVIYEDTRRPSGIPAKFSGSSSGSVATLTISGAHGDDEADYYCYSTDASGHQRVFGGGTKLTVLSQPKAAPSVTLFPPSSEELQANKATLVCLISDFYPGAVTVAWKADGSPVKAGVETTKPSKQSNNKYAASSYLSLTPEQWKSHRSYSCQVTHEGSTVEKTVAPTECS
notes: pH-dependent anti-C2 antibody from a phage display library; also called WT
Kd (human C2 F437A): 260 nM
Kd (human C2 D419A): 17.6 nM
Kd (human C2 N325A): 51.3 nM
Kd (human C2 T491A): 15.5 nM
